Article PMC4634933, “Development of a Novel PET Tracer [^18F]AlF-NOTA-C6 Targeting MMP2 for Tumor Imaging” (PLoS ONE, 2015)
Bridge positions count the residues as written; N and C are the ends. Peptide text beside a SMILES is read from it. * marks the point of attachment. NOTA = O=C(O)CN1CCN(CC(=O)O)CCN(CC(=O)*)CC1

Columns and labels:
[1] = format: physicochemical
Experimental: To examine in vitro stability, approximately 400 μL of [^18F]AlF-NOTA-C6 and 2 mL of physiological saline at room temperature, or 2 mL of human serum at 37°C, were mixed and incubated for 4 h. During the incubation, 200-μL samples were collected at 2 and 4 h. The samples were subsequently analyzed by radio-HPLC.

[2] = in vivo; set-up: species or system mice; conditions: female, BALB/c nude, mouse, in vivo, iv, 0.74 MBq, total radioactivity
Experimental: (§1) Tumor-bearing mice were prepared via a subcutaneous injection of cancer cells into the forelegs of female (SKOV3) or male (PC3) BALB/c nude mice (B&K Universal, Shanghai, China) at 6 weeks of age (body weight 18–20 g). When tumors were palpable, i.e., approximately 5 mm in diameter, the mice were used for biodistribution and PET imaging experiments. Biodistribution experiments were performed via intravenous administration of [^18F]AlF-NOTA-C6 (0.74 MBq) to mice bearing SKOV3 tumors. At 30, 60, and 120 min PI (n = 4 mice/timepoint), the mice were euthanized and the biological samples of interest (e.g., blood, tumor, muscle, lung, spleen, kidney, liver, and small intestine) were harvested and weighed. In the blocking experiments, the mice (n = 4) were pre-blocked with unlabeled C6 at 10 mg/kg body weight prior to the tracer injection; at 60 min PI of [^18F]AlF-NOTA-C6, the mice were euthanized as previously described. The radioactivity values of the tissues and injection standards were subsequently measured in a γ-counter. The samples were corrected for radioactive decay to calculate the percent of injected dose (ID) to grams of tissue (%ID/g) relative to a standard that represented the injected dose.

[3] = test system: SKOV3 tumor-bearing mice; assay: in vivo
Experimental: as §1

[4] = test system: SKOV3 tumors; assay: MicroPET imaging of SKOV3 tumor-bearing mice; format: in vivo; conditions: 3.7 MBq via tail vein, non-blocked
Experimental: Tumor-bearing mice were prepared via a subcutaneous injection of cancer cells into the forelegs of female (SKOV3) or male (PC3) BALB/c nude mice (B&K Universal, Shanghai, China) at 6 weeks of age (body weight 18–20 g). When tumors were palpable, i.e., approximately 5 mm in diameter, the mice were used for biodistribution and PET imaging experiments. PET imaging was performed on 4 mice bearing SKOV3 tumors using a microPET scanner; prior to the tracer injection, 2 mice were pre-blocked with unlabeled C6 at 10 mg/kg body weight, and 2 mice were not pre-blocked. Pre-blocked and non-blocked mice were then administered 3.7 MBq of [^18F]AlF-NOTA-C6, via tail vein injection. At 30, 60, and 120 min post-injection (PI), the mice were anesthetized with 1–2% isoflurane, positioned supine, immobilized, and imaged. The scan time was 10 min. The images were reconstructed using the ordered subset expectation maximization method; no attenuation correction was used.

[5] = test system: PC3 tumors; assay: MicroPET imaging of PC3 tumor-bearing mice; format: in vivo; conditions: 3.7 MBq via tail vein, greatest radioactivity concentration at 30 min PI
[6] = test system: gelatinase; set-up: method as in PMID 19424760; conditions: cited from earlier work

In the case of `CC(C)C[C@@H]1NC(=O)[C@H]([C@@H](C)O)NC(=O)[C@H](Cc2ccccc2)NC(=O)CNC(=O)[C@H](Cc2c[nH]c3ccccc23)NC(=O)[C@H](Cc2c[nH]cn2)NC(=O)[C@H](C)NC(=O)[C@@H](NC(=O)CN2CCN(CC(=O)O)CCN(CC(=O)O)CC2)CCCCNC(=O)C[C@@H](C(N)=O)NC1=O` [[^18F]AlF-NOTA-C6] ({NOTA}-KAHWGFTLD-NH2; lactam 1-9), the radioactive degradation products [1] is reported as “absence”, the “radioactivity in the form of [18F]AlF-NOTA-C6” value ([1]; physiological saline, room temperature, 4 h incubation, radio-HPLC) is reported as > 95% and the tissue uptake at 0.5 h ([2]; Fat uptake) is reported as 0.44 ± 0.08 %ID/g. It also gave a tissue uptake at 1 h ([2]; Fat uptake) of 0.18 ± 0.1 %ID/g, a tissue uptake at 2 h ([2]; Fat uptake) of 0.12 ± 0.07 %ID/g and a tissue uptake at 0.5 h ([2]; Gut uptake) of 0.47 ± 0.09 %ID/g. The tissue uptake at 1 h ([2]; Gut uptake) was 0.13 ± 0.07 %ID/g, the tissue uptake at 2 h ([2]; Gut uptake) was 0.12 ± 0.07 %ID/g and the tissue uptake at 0.5 h ([2]; Kidney uptake) was 7.14 ± 0.05 %ID/g. The tissue uptake at 1 h ([2]; Kidney uptake) was 4.55 ± 1.38 %ID/g, the tissue uptake at 2 h ([2]; Kidney uptake) was 4.72 ± 0.31 %ID/g and the tissue uptake at 0.5 h ([2]; Muscle uptake) was 0.57 ± 0.15 %ID/g. For the same molecule, the tissue uptake at 1 h ([2]; Muscle uptake) was 0.08 ± 0.04 %ID/g, the tissue uptake at 2 h ([2]; Muscle uptake) was 0.21 ± 0.08 %ID/g and the tissue uptake at 0.5 h ([2]; Pancreas uptake) was 0.35 ± 0.01 %ID/g. For the same molecule, the tissue uptake at 1 h ([2]; Pancreas uptake) was 0.16 ± 0.14 %ID/g, the tissue uptake at 2 h ([2]; Pancreas uptake) was 0.09 ± 0.06 %ID/g and the tissue uptake at 0.5 h ([2]; Sexual gland uptake) was 0.5 ± 0.12 %ID/g. The tissue uptake at 1 h ([2]; Sexual gland uptake) was 0.05 ± 0.03 %ID/g, the tissue uptake at 2 h ([2]; Sexual gland uptake) was 0.09 ± 0.02 %ID/g and the tissue uptake at 0.5 h ([2]; Stomach uptake) was 0.49 ± 0.31 %ID/g. The tissue uptake at 1 h ([2]; Stomach uptake) was 0.21 ± 0.19 %ID/g, the tissue uptake at 2 h ([2]; Stomach uptake) was 0.07 ± 0.02 %ID/g and the tissue uptake at 0.5 h ([2]; Thyroid uptake) was 0.88 ± 0.13 %ID/g. It also gave a tissue uptake at 1 h ([2]; Thyroid uptake) of 0.16 ± 0.07 %ID/g, a tissue uptake at 2 h ([2]; Thyroid uptake) of 0.3 ± 0.16 %ID/g and a tissue uptake at 0.5 h ([2]; Tumor uptake) of 1.2 ± 0.24 %ID/g. The tissue uptake at 1 h ([2]; Tumor uptake) was 0.75 ± 0.25 %ID/g, the tissue uptake at 2 h ([2]; Tumor uptake) was 0.27 ± 0.14 %ID/g and the “change of tumor tissue uptake after pre-injection of excess C6” value ([3]; SKOV3 tumor-bearing mice, C6 10 mg/kg pre-block versus non-blocked, 60 min PI, P < 0.05) was “marked reduction”. For the same molecule, the “uptake ratio of tumor-to-blood” value ([3]; mouse, in vivo) was > 2 fold, the “tumor radioactivity concentration in PET” value ([4]; 30 and 60 min PI) was “visualized” and the “uptake of the tumors in PET” value ([4]; 120 min PI) was “negligible”. For the same molecule, the “tumor detection via PET” value [5] was “detected”.

For “c(Lys-Ala-His-Trp-Gly-Phe-Thr-Leu-Asp)NH2 (sidechain bridge or staple) [C6]”, the “increase in gelatinase inhibition relative to CTT” value [6] is given as 4 fold.
